In IntAct's records for PubMed 10064581:

B1: Circadian clock oscillator protein KaiA (Synechococcus elongatus (strain PCC 7942)), Q79PF6 (parent)
chain: MLSQIAICIWVESTAILQDCQRALSADRYQLQVCESGEMLLEYAQTHRDQIDCLILVAANPSFRAVVQQLCFEGVVVPAIVVGDRDSEDPDEPAKEQLYHSAELHLGIHQLEQLPYQVDAALAEFLRLAPVETMADHIMLMGANHDPELSSQQRDLAQRLQERLGYLGVYYKRDPDRFLRNLPAYESQKLHQAMQTSYREIVLSYFSPNSNLNQSIDNFVNMAFFADVPVTKVVEIHMELMDEFAKKLRVEGRSEDILLDYRLTLIDVIAHLCEMYRRSIPRET
partner: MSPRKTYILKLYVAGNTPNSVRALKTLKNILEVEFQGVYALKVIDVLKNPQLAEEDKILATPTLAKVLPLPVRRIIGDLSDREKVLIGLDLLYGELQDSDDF

Variants of: B1
Settings: with kaib_syne7 kaiB

effect of a mutation on the interaction	Variant
increasing interaction	E103K
